Reference: patent publication US20230383269A1 (DSM AUSTRIA, published 2023)
Residue numbers refer to the chain shown, from its start. Numbers in names are those of the source.

B1: alpha/beta hydrolase variant of SEQ ID NO: 10 (R155K, N167T, S174C, V175A) (enzyme)
chain: MTDQSPETRDIFVPHAFEEQQVDLGEVVMNYVEAGSADHPALLLLPEQTGSWWSYEPVIGLLAESFHVFAVDIRGQGRSTWTPKRYSLDNFGNDLVRFISLVVKRPVIVSGNSSGGVLAAWLSAYAMPGQIRAALCEDTPFFASELVPAHGHSVKQAAGPAFELYRTFLGDQWCAADWDGFAAAAKASPSKIMSLFPSSDEPPQNLKEYDPEWARAFFEGTVALHCPHDLMLSQVKTPILITHHARAVDPHSGDLLGALSDFQAERAQAIIESAGVPVEYASFPDALHMMHQFEPERFAEVLTSWVARLPADTPGAHHHHHH
notes: homo-tetramer; also called zearalenone-cleaving polypeptide
B2: alpha/beta hydrolase variant of SEQ ID NO: 3 (N167T) (enzyme)
chain: B1 chain with K155R, C174S, A175V
notes: as for B1
B3: alpha/beta hydrolase variant of SEQ ID NO: 34 (N167T, F168Y, S174C, D179E, A182C, A183R, K186R, A187R, F218Y, S304R) (enzyme)
chain: B1 chain with K155R, F168Y, A175V, D179E, A182C, A183R, K186R, A187R, F218Y, S304R
notes: as for B1
B4: alpha/beta hydrolase variant of SEQ ID NO: 28 (N167T, F168Y, S174C, D179E, A182C, A183R, K186R, A187R, F218Y L230R) (enzyme)
chain: B1 chain with K155R, F168Y, A175V, D179E, A182C, A183R, K186R, A187R, F218Y, L230R
notes: as for B1
B5: alpha/beta hydrolase variant of SEQ ID NO: 2 (N167T, F168Y, S174C, F218Y) (enzyme)
chain: B1 chain with K155R, F168Y, A175V, F218Y
notes: as for B1
B6: alpha/beta hydrolase variant of SEQ ID NO: 12 (N167S, S174C) (enzyme)
chain: B1 chain with K155R, T167S, A175V
notes: as for B1
B7: alpha/beta hydrolase variant of SEQ ID NO: 29 (N167T, F168Y, S174C, D179E, A182C, A183R, K186R, A187R, F218Y, A245V) (enzyme)
chain: B1 chain with K155R, F168Y, A175V, D179E, A182C, A183R, K186R, A187R, F218Y, A245V
notes: as for B1
B8: alpha/beta hydrolase variant of SEQ ID NO: 19 (V28T, N167T, F168Y, S174C, D179E, A182C, A183R, K186R, A187R, F218Y) (enzyme)
chain: B1 chain with V28T, K155R, F168Y, A175V, D179E, A182C, A183R, K186R, A187R, F218Y
notes: as for B1
B9: alpha/beta hydrolase variant of SEQ ID NO: 7 (N167L) (enzyme)
chain: B1 chain with K155R, T167L, C174S, A175V
notes: as for B1
B10: alpha/beta hydrolase variant of SEQ ID NO: 30 (N167T, F168Y, S174C, D179E, A182C, A183R, K186R, A187R, F218Y, H251E) (enzyme)
chain: B1 chain with K155R, F168Y, A175V, D179E, A182C, A183R, K186R, A187R, F218Y, H251E
notes: as for B1
B11: alpha/beta hydrolase variant of SEQ ID NO: 26 (T139P N167T, F168Y, S174C, D179E, A182C, A183R, K186R, A187R, F218Y) (enzyme)
chain: B1 chain with T139P, K155R, F168Y, A175V, D179E, A182C, A183R, K186R, A187R, F218Y
notes: as for B1
B12: alpha/beta hydrolase variant of SEQ ID NO: 15 (N167T, F168Y, S174C, D179E, A182C, A183R, K186R, A187R, F218Y) (enzyme)
chain: B1 chain with K155R, F168Y, A175V, D179E, A182C, A183R, K186R, A187R, F218Y
notes: as for B1
B13: alpha/beta hydrolase variant of SEQ ID NO: 6 (N167C) (enzyme)
chain: B1 chain with K155R, T167C, C174S, A175V
notes: as for B1
B14: alpha/beta hydrolase variant of SEQ ID NO: 27 (N167T, F168Y, S174C, D179E, A182C, A183R, K186R, A187R, F218Y, H225S) (enzyme)
chain: B1 chain with K155R, F168Y, A175V, D179E, A182C, A183R, K186R, A187R, F218Y, H225S
notes: as for B1
B15: alpha/beta hydrolase variant of SEQ ID NO: 31 (N167T, F168Y, S174C, D179E, A182C, A183R, K186R, A187R, F218Y, A281E) (enzyme)
chain: B1 chain with K155R, F168Y, A175V, D179E, A182C, A183R, K186R, A187R, F218Y, A281E
notes: as for B1
B16: alpha/beta hydrolase variant of SEQ ID NO: 33 (N167T, F168Y, S174C, D179E, A182C, A183R, K186R, A187R, F218Y, S293S) (enzyme)
chain: B1 chain with K155R, F168Y, A175V, D179E, A182C, A183R, K186R, A187R, F218Y, F293S
notes: as for B1
B17: alpha/beta hydrolase variant of SEQ ID NO: 24 (F69Y, N167T, F168Y, S174C, D179E, A182C, A183R, K186R, A187R, F218Y) (enzyme)
chain: B1 chain with F69Y, K155R, F168Y, A175V, D179E, A182C, A183R, K186R, A187R, F218Y
notes: as for B1
B18: alpha/beta hydrolase variant of SEQ ID NO: 17 (D10N, N167T, F168Y, S174C, D179E, A182C, A183R, K186R, A187R, F218Y) (enzyme)
chain: B1 chain with D10N, K155R, F168Y, A175V, D179E, A182C, A183R, K186R, A187R, F218Y
notes: as for B1
B19: alpha/beta hydrolase variant of SEQ ID NO: 20 (H39R, N167T, F168Y, S174C, D179E, A182C, A183R, K186R, A187R, F218Y) (enzyme)
chain: B1 chain with H39R, K155R, F168Y, A175V, D179E, A182C, A183R, K186R, A187R, F218Y
notes: as for B1
B20: alpha/beta hydrolase variant of SEQ ID NO: 9 (N167T, S174C) (enzyme)
chain: B1 chain with K155R, A175V
notes: as for B1
B21: alpha/beta hydrolase variant of SEQ ID NO: 13 (N167T, S174C, F218Y) (enzyme)
chain: B1 chain with K155R, A175V, F218Y
notes: as for B1
B22: alpha/beta hydrolase variant of SEQ ID NO: 5 (N167A) (enzyme)
chain: B1 chain with K155R, T167A, C174S, A175V
notes: as for B1
B23: alpha/beta hydrolase variant of SEQ ID NO: 11 (R155K, N167T, S174C, V175T) (enzyme)
chain: B1 chain with A175T
notes: as for B1
B24: alpha/beta hydrolase variant of SEQ ID NO: 14 (N167T, F168Y, S174C) (enzyme)
chain: B1 chain with K155R, F168Y, A175V
notes: as for B1
B25: alpha/beta hydrolase variant of SEQ ID NO: 25 (A126S, N167T, F168Y, S174C, D179E, A182C, A183R, K186R, A187R, F218Y) (enzyme)
chain: B1 chain with A126S, K155R, F168Y, A175V, D179E, A182C, A183R, K186R, A187R, F218Y
notes: as for B1
B26: alpha/beta hydrolase variant of SEQ ID NO: 4 (N167S) (enzyme)
chain: B1 chain with K155R, T167S, C174S, A175V
notes: as for B1
B27: alpha/beta hydrolase variant of SEQ ID NO: 8 (N167T, S174T) (enzyme)
chain: B1 chain with K155R, C174T, A175V
notes: as for B1
B28: alpha/beta hydrolase variant of SEQ ID NO: 16 (N167T, F168Y, S174C, D179E, A182C, A183R, K186R, A187R, F218Y, Q268L, V306I) (enzyme)
chain: MTDQSPETRDIFVPHAFEEQQVDLGEVVMNYVEAGSADHPALLLLPEQTGSWWSYEPVIGLLAESFHVFAVDIRGQGRSTWTPKRYSLDNFGNDLVRFISLVVKRPVIVSGNSSGGVLAAWLSAYAMPGQIRAALCEDTPFFASELVPAHGHSVRQAAGPAFELYRTYLGDQWCVADWEGFCRAARRSPSKIMSLFPSSDEPPQNLKEYDPEWARAFYEGTVALHCPHDLMLSQVKTPILITHHARAVDPHSGDLLGALSDFQAERALAIIESAGVPVEYASFPDALHMMHQFEPERFAEVLTSWIARLPADTPGAHHHHHH
notes: as for B1
B29: alpha/beta hydrolase variant of SEQ ID NO: 22 (P57E, V58A, I59M, N167T, F168Y, S174C, D179E, A182C, A183R, K186R, A187R, F218Y) (enzyme)
chain: B28 chain with P57E, V58A, I59M, L268Q, I306V
notes: as for B1
B30: alpha/beta hydrolase variant of SEQ ID NO: 18 (F17Y, I59M, N167T, F168Y, S174C, D179E, A182C, A183R, K186R, A187R, F218Y) (enzyme)
chain: B28 chain with F17Y, I59M, L268Q, I306V
notes: as for B1
B31: alpha/beta hydrolase variant of SEQ ID NO: 32 (N167T, F168Y, S174C, D179E, A182C, A183R, K186R, A187R, F218Y, L287T, M289S) (enzyme)
chain: B28 chain with L268Q, L287T, M289S, I306V
notes: as for B1
B32: alpha/beta hydrolase variant of SEQ ID NO: 23 (A63S, S65H, N167T, F168Y, S174C, D179E, A182C, A183R, K186R, A187R, F218Y) (enzyme)
chain: B28 chain with A63S, S65H, L268Q, I306V
notes: as for B1
B33: alpha/beta hydrolase variant of SEQ ID NO: 21 (E47S, G50E, N167T, F168Y, S174C, D179E, A182C, A183R, K186R, A187R, F218Y) (enzyme)
chain: B28 chain with E47S, G50E, L268Q, I306V
notes: as for B1

Biological target: the molecule itself
Assay: Blue-Native-PAGE, oligomeric conformation (self-association of identical chains)
Source text: Comparison of the native molecular weight (oligomeric conformation) between single purified zearalenone-cleaving polypeptides was done via Blue-Native-PAGE. Dilutions of the elutes were supplied with not denaturating loading dye (e.g. 2× loading dye: 0.126 M tris(hydroxymethyl)aminomethan/hydrochloric acid pH 6.8, 20.0% glycerol, 4.0% Coomassie Blue G-250) and separated on a 4-15% polyacrylamid gel under native conditions (e.g. Mini-PROTEAN® Tetra Cell System, 1658004EDU+4-15% Mini-PROTEAN® TGX™ Precast Protein Gels, 4561083EDU, Bio-Rad Laboratories GmbH) (5× Anode Buffer: 0.125 M Tris(hydroxymethyl)aminomethane, 0.960 M Glycine, 1× Kathode Buffer: Anode Buffer+0.02% Coomassie Blue G250; 200 V, 40 minutes). The peptide bands were visualized by Coomassie staining. The oligomeric state of selected zearalenone-cleaving polypeptides was determined by size exclusion chromatography, SEC-MALS or X-Ray crystallography. Homo-dimers (e.g. SEQ ID NO. 1) migrated faster across the BN-PAGE gel matrix, while homo-tetramers (e.g. SEQ ID NO. 2-35) were retained in the gel matrix to a higher extent. The oligomeric conformation of the zearalenone-cleaving polypeptides was determined relatively to the migration of homo-dimeric and homo-tetrameric peptides.

Protein | binding result
B1 | binds
B2 | binds
B3 | binds
B4 | binds
B5 | binds
B6 | binds
B7 | binds
B8 | binds
B9 | binds
B10 | binds
B11 | binds
B12 | binds
B13 | binds
B14 | binds
B15 | binds
B16 | binds
B17 | binds

Protein | binding result
B18 | binds
B19 | binds
B20 | binds
B21 | binds
B22 | binds
B23 | binds
B24 | binds
B25 | binds
B26 | binds
B27 | binds
B28 | binds
B29 | binds
B30 | binds
B31 | binds
B32 | binds
B33 | binds
